This passage reports Kd, koff and kon results from paper PMC6393559.

For the assay, the target named is Adnectin C-PAS#1(200). In words: SPR; Biacore X100, 25 °C, HBS-EP buffer pH 7.4, CM5 chip; His-tagged Adnectins captured on amine-coupled anti-His antibody (about 300 RU); rhVEGFR2 injected at 50-3.125 ug/ml; multi cycle kinetics, contact 180 s, dissociation 500 s.

The term Kd denotes a measure of binding affinity in units of concentration. Read a low Kd as tighter binding. By koff is commonly meant the rate constant with which the complex falls apart. A high value points to a short-lived complex. What is called kon is the rate constant with which the complex forms. A lower kon goes with slow association.

The substance “rhVEGFR2 (Genescript) (from UniProt P35968 20-764) (receptor)” showed a Kd of 0.159 nM, a koff of 2.48e-05 s⁻¹ and a kon of 156000 M⁻¹ s⁻¹.
